Laboratory results as given in publication PMC8751750, “Effect of using different co-ligands during ^99mTc-labeling of J18 peptide on SK-MES-1 cell binding and tumor targeting” (Iranian Journal of Basic Medical Sciences, 2021).
Entries after “also recorded” stand apart in the source; their conditions may differ. Peptide text beside a SMILES is read from it.

What was measured:
SK-MES-1 cells [1] = assay: Saturation binding assay on SK-MES-1 cells; set-up: species or system human
Procedure: The affinities of (^99mTc) Tc-HYNIC-peptides were determined utilizing a saturation binding experiment with cultivated cells in vitro for determination of the dissociation constant as KD and the number of binding sites per cell (Bmax). SK-MES-1 cells were incubated for 2 hr at 37 °C with increasing concentrations of (^99mTc) Tc- HYNIC- peptides (0.1, 0.5, 1, 2.5, 5, 25, and 50 nM). One dish served as a blocking sample, and it was immersed in a blocking solution containing a 500-fold excess of the non-labeled peptide. For each concentration, three dishes were utilized. Following incubation, the media was withdrawn, and the cells were trypsinized and collected for Gamma counter activity measurement. Prism 5 software (Ver. 5.0) was used to examine the particular binding data using nonlinear regression.

SK-MES-1 tumors = assay: Biodistribution in SK-MES-1 xenografted nude mice; format: in vivo, female C57 nu/nu mice; conditions: SK-MES-1 xenograft nude mice, mean ± SD, n=4
Procedure: (§1) The tumor biodistribution and targeting properties of the radiolabeled peptides were carried out in female C57 nu/nu mice bearing SK-MES-1 (Pasture Institute, North Branch and Amol, Iran). The tumor was grafted by subcutaneous injection of SK-MES-1 cells at a concentration of 4×10^6 cells/mouse into the right front flank of the mice and left to grow over a period of 20 days. The mice were ready for biodistribution when tumor size reached 0.7–1 cm^3 in mean diameter, all mice received intravenous co-injections of (^99mTc) Tc-HYNIC-(Ser)3-J18 peptide 1 or (^99mTc )Tc-HYNIC-(Ser)3-J18 peptide 2 (1 μg in 100 μl buffer) after 1, 2, and 4 hr post-injection, respectively (n=4 mice per group). In order to measure the radiopeptides’ nonspecific uptake of the radiopeptides, one group of four animals was injected with 300 μg of non-labeled peptide in a 50 μl buffer. The mice in the blocking group were euthanized 2 hr after the injection. Mice organ and tissue samples were collected, and radioactivity uptake was calculated as a percentage of the administered dose per gram tissue (%ID/g).

[2] = Biodistribution in SK-MES-1 xenografted nude mice; format: in vivo, female C57 nu/nu mice; conditions: female, C57 nu/nu, mouse, in vivo, iv, total radioactivity, SK-MES-1 xenograft nude mice, n=4
Procedure: as §1

[3] = tested on: SK-MES-1, A-549, SKOV-3 and MCF-7 cells; assay: In vitro receptor binding of radiolabeled peptides on four cell lines; set-up: species or system human; conditions: 40 nM radiolabeled peptide, 2 hr at 37 °C
Procedure: (§2) The in vitro receptor binding of the^ 99mTc-labeled peptide was evaluated using SK-MES-1 a human lung squamous cell carcinoma, SKOV-3 human ovarian carcinoma, and A-549 human lung adenocarcinoma epithelial and MCF-7 human breast cancer cell lines. All cell lines were kept at 37 °C in a 5% CO2 incubator and were maintained in Dulbecco’s DMEM-high glucose supplemented with 10% FBS. Cells were plated in 24-well plates at a density of 4×10^5 cells/well in 1 ml of complete medium and incubated for 24 hr to allow in cells to settle. Following a wash with cold serum-free media or PBS, 40 nM radiolabeled peptides in the full medium were given to the cells, which were then incubated at 37 °C for 2 hr. Finally, cells in culture plates were trypsinized and released, and radioactivity in the cells was measured. To determine specific versus nonspecific binding, SK-MES-1 cells were seeded into 12-well plates at a density of 5×10^5 cells/well and incubated with unlabeled peptides at a concentration 500-fold higher than the labeled peptide for 20 min at 37 °C, followed by the addition of the radiolabeled peptide to the wells. These cells were incubated for 2 hr at 37 °C in a humidified incubator.

A-549 cells = conditions: previously reported, listed as 99mTc-HYNIC-(Ser)3-J18 (tricine/EDDA); cited from earlier work
Text: Table 1 Overview of affinity binding ^99mTc-HYNIC-(Ser)3-J18 on SK-MES-1 vs A-549 cell line | column: A-549 / Tricine; A-549 / tricine/EDDA

SK-MES-1 cells [4] = assay: Specific binding (blocking with unlabeled peptide) on SK-MES-1 cells; set-up: species or system human; conditions: listed as 99mTc-peptide 2
Procedure: as §2

[5] = Biodistribution in normal mice; format: in vivo; conditions: normal female NMRI mice, i.v. 1 μg in 100 μl (18.5 MBq), mean±SD, n=4
Procedure: All animal investigations were approved by Mazandaran University of Medical Sciences Research and Ethical Committee in Sari, Iran. Twelve normal female NMRI mice (20–30 g) were randomly divided into three groups of four. 1 μg of (^99mTc) Tc –HYNIC–J18 peptide in 100 μl of buffer (18.5 MBq) was injected into the tail vein. All animals were sacrificed one, four, and twenty-four hours following radiolabeled peptide injection. Mice were euthanized with an appropriate dose of ketamine/xylazine (Sigma, USA) diluted with sterile water (1:3 v/v). Following deep anesthesia, blood was extracted by heart puncture with a 1-mL syringe washed with diluted heparin. Blood, liver, spleen, salivary gland, stomach, kidney, muscle, and bone samples were dissected and weighed, and radioactivity was measured. Except for the intestines, which were computed as a percentage of the injected dose per gram tissue (percent ID/g), the tissue uptake data was calculated as a percentage of the administered dose per total sample.

Q: Which results are given for `CC(C)C[C@H](NC(=O)[C@H](CO)NC(=O)[C@H](CCCNC(=N)N)NC(=O)[C@H](CO)NC(=O)[C@H](CO)NC(=O)[C@H](CO)NC(=O)c1ccc(NN)nc1)C(=O)N[C@@H](Cc1c[nH]c2ccccc12)C(=O)N[C@@H](CO)C(=O)N[C@@H](CC(=O)O)C(=O)N[C@@H](Cc1ccccc1)C(=O)N[C@@H](Cc1ccc(O)cc1)C(=O)N[C@@H](C)C(=O)N[C@@H](CO)C(=O)N[C@@H](C)C(=O)N[C@@H](CO)C(=O)N[C@@H](CCCNC(=N)N)C(=O)NCC(=O)N1CCC[C@H]1C(=O)O` [Peptide 2, (^99mTc) Tc-HYNIC-(Ser)3-J18 with tricine/EDDA, metal not drawn] (HELM PEPTIDE1{[NNc1ccc(C(=O)[*:2])cn1].S.S.S.R.S.L.W.S.D.F.Y.A.S.A.S.R.G.P}$$$$V2.0; C-terminus assumed)?
A: Bmax (SK-MES-1 cells [1]; Figure 4, saturation binding, 2 hr at 37 °C, listed as 99mTc-(EDDA/tricine)-(Ser)3-HYNIC-J18): (1.9±0.3)·10^4 binding sites/cell; binding affinity for SK-MES-1, in words (SK-MES-1 cells [1]; listed as 99mTc-peptide 2): high binding affinity; also recorded: good receptor-binding affinity; Kd (SK-MES-1 cells [1]; saturation binding, 0.1-50 nM, 2 hr at 37 °C, blocking with 500-fold excess non-labeled peptide, three dishes per concentration, Prism 5 nonlinear regression, listed as 99mTc-HYNIC-(Ser)3-J18 (tricine/EDDA)): 3.64 ± 0.8 nM; Intestine uptake (with contents) (SK-MES-1 tumors; 1 hr, i.v. 1 μg in 100 μl): 0.78±0.01 percentage of injected dose per whole sample; Intestine uptake (with contents) (SK-MES-1 tumors; 2h-blocked (300 μg non-labeled peptide 0.5 hr before), i.v. 1 μg): 0.23±0.09 percentage of injected dose per whole sample; Intestine uptake (with contents) (SK-MES-1 tumors; 2 hr, i.v. 1 μg in 100 μl): 0.53±0.11 percentage of injected dose per whole sample; Intestine uptake (with contents) (SK-MES-1 tumors; 4 hr, i.v. 1 μg in 100 μl): 0.03±0.01 percentage of injected dose per whole sample; tissue to tissue ratio at 2 h ([2]; 1 ug, 2 hr, read-out: Tumor/blood ratio): 2.96; tissue uptake at 2 h ([2]; 2h-blocked (300 μg non-labeled peptide 0.5 hr before), i.v. 1 μg, mean ± SD, read-out: Tumor uptake): 0.43 ± 0.05 %ID/g; cellular affinity, in words [3]: strongest cellular affinity for the SK-MES-1 cell line; Kd (A-549 cells): 4.4 ± 0.8 nM; reduction of binding by pre-saturation with unlabeled J18 peptide (SK-MES-1 cells [4]; 500-fold unlabeled peptide 20 min at 37 °C, then radiolabeled peptide 2 hr at 37 °C): 7.5 fold; specific binding to SK-MES-1, in words (SK-MES-1 cells [4]): high specificity; Intestine uptake (with contents) ([5]; 4 hr): 3.63±1.80 percentage of injected dose per whole sample; Intestine uptake (with contents) ([5]; 24 hr): 0.59±0.29 percentage of injected dose per whole sample
